Results: patent US20190375786A1, “STABLE PEPTIDES AND METHODS OF USE THEREOF” (Fred Hutchinson Cancer Research Center, priority 2016, published 2019)

What was measured:
[1] = biological target: trypsin (Sus scrofa, UniProt P00761); assay: Trypsin digestion resistance of soluble peptide, RP-HPLC; format: in vitro ADME, porcine; parameters: purchased Sigma Aldrich 6567; details: 500 U/ml trypsin, 30 minutes at 37.5° C.; HPLC peak vs untreated peptide
How it was run: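 12.5 μg soluble peptide digested with 500 U/ml porcine trypsin in PBS, 30 min at 37.5° C; quenched with soybean trypsin inhibitor, with or without 10 mM DTT reduction afterwards. Intact peptide assessed by C-18 RP-HPLC, 5-45% acetonitrile/0.1% TFA gradient over 10 min.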

[2] = Resistance to reduction by DTT, RP-HPLC; format: physicochemical; details: 10 mM DTT in PBS, room temperature, 30 minutes; HPLC peak vs untreated peptide
Method: Peptides were first suspended in 500 ul of ddH2O to a stock concentration of 2 mg/ml. Reactions were prepared by adding 12.5 ug of peptide from the stock solution to a 10 mM solution of DTT in PBS and allowed to incubate at room temperature for 30 minutes. Other reactions were prepared with 12.5 μg peptide with or without 500 U/ml pepsin in simulated gastric fluid (SGF; pH 1.05; […] sodium chloride in 0.7% (v/v) hydrochloric acid) and were incubated for 30 minutes at 37.5° C. Some reactions were quenched with a final concentration of 100 mM Tris base and 10 mM dithiothreitol (DTT). Some reactions were performed in all of the above components, including simulated gastric fluid, pepsin, Tris, and DTT (referred to as SPTD). Reversed phase HPLC (RP-HPLC) was run on samples using an Agilent 1260 HPLC equipped with a C-18 Poroshell 120B column. Sample were analyzed by a gradient method with a mobile phase of Solvent A (water with 0.1% TFA) and Solvent B (acetonitrile with 0.1% TFA). Solvent B was ramped up from 5%-45% of the mobile phase over a period of 10 minutes. Peptides were detected at an absorbance of 214 nm and 280 nm.
(§1) Peptides were first suspended in 500 μl of ddH2O to a stock concentration of 2 mg/ml. Reactions were prepared by adding 12.5 μg of peptide from the stock solution to a 10 mM solution of DTT in PBS and allowed to incubate at room temperature for 30 minutes. Other reactions were prepared with 12.5 μg peptide and 500 U/ml trypsin in 25 mM Tris/75 mM NaCl buffer (pH 7.0) and incubated for 30 minutes at 37.5° C. These reactions were then quenched with 5 μg of soybean trypsin inhibitor (I) and, in some cases, 10 mM dithiothreitol (DTT). Reversed phase HPLC (RP-HPLC) was run on samples using an Agilent 1260 HPLC equipped with a C-18 Poroshell 120B column. Sample were analyzed by a gradient method with a mobile phase of Solvent A (water with 0.1% TFA) and Solvent B (acetonitrile with 0.1% TFA). Solvent B was ramped up from 5%-45% of the mobile phase over a period of 10 minutes. For testing pepsin digestion resistance, reactions were prepared with 12.5 μg peptide with or without 500 U/ml pepsin in simulated gastric fluid (SGF; pH 1.05; […] sodium chloride in 0.7% (v/v) hydrochloric acid) and were incubated for 30 minutes at 37.5° C. For testing temperature resistance, peptides were incubated at 70° C., 75° C., or 100° C. for one hour in 0.5 mM PBS, pelleted, and then the supernatant was analyzed by HPLC.
This example illustrates peptide stability in biological conditions including in the presence of reducing agents, proteases, oxidative conditions, acidic conditions, and simulated gastric fluids. […] Various peptides were suspended in 500 μl of ddH2O at a stock concentration of 2 mg/ml. This was then diluted in accord with the reaction conditions to prevent adverse buffering effects. Reactions were prepared with 12.5 μg peptide dissolved in solution and, in some samples, additionally suspended in a 10 mM solution of DTT, simulated gastric fluid (pH 1.05; […] sodium chloride in 0.7% (v/v) hydrochloric acid), 500 U pepsin (5000 U/ml pepsin), 50 U trypsin (500 U/ml trypsin) with 1 mg/ml inhibitor in PBS, or a combination of any of these conditions. All protease reactions were incubated for 30 min at room temperature and then quenched. Pepsin reactions were quenched by adding Tris base to a final concentration of 0.075 M. Trypsin reactions were quenched by adding excess soybean trypsin inhibitor. RP-HPLC was then run on samples using an Agilent 1260 HPLC equipped with a C-18 Poroshell 120B column. Sample were analyzed by a gradient method with a mobile phase of Solvent A (water with 0.1% TFA) and Solvent B (acetonitrile with 0.1% TFA). Solvent B was ramped up from 5%-45% of the mobile phase over a period of 10 minutes.
FIG. 18 illustrates high performance liquid chromatograph (HPLC) traces of peptides in non-reducing (NR) conditions (solid trace) or in 10 mM DTT reducing (R) conditions (dashed trace). […]

[3] = Resistance to elevated temperature, HPLC; format: physicochemical; details: HPLC peak vs untreated peptide; for Resistance to Temperature (75° C.): 75° C. for one hour; for Resistance to Temperature (100° C.): 100° C. for one hour
Method: as §1
This example illustrates peptide stability at high temperatures. Peptides were first suspended in 500 μl of ddH2O to a stock concentration of 2 mg/ml. Reactions were prepared by adding 6.25 μl of peptide from the stock solution with 95 μl ddH2O and incubated at room temperature, 70° C., or 100° C. for one hour in a Thermocycler. RP-HPLC was then run on samples using an Agilent 1260 HPLC equipped with a C-18 Poroshell 120B column. Sample were analyzed by a gradient method with a mobile phase of Solvent A (water with 0.1% TFA) and Solvent B (acetonitrile with 0.1% TFA). Solvent B was ramped up from 5%-45% of the mobile phase over a period of 10 minutes.

[4] = biological target: pepsin (Sus scrofa, UniProt P00791); assay: Pepsin digestion resistance in simulated gastric fluid, RP-HPLC; format: in vitro ADME, porcine; parameters: purchased Sigma Aldrich P7012; details: 500 U/ml pepsin in SGF pH 1.05, 30 minutes at 37.5° C.; HPLC peak vs untreated peptide
How it was run: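 Peptide (12.5 μg) incubated 30 min at 37.5 °C with or without 500 U/ml pepsin in simulated gastric fluid (pH 1.05; 2% NaCl in 0.7% HCl); some reactions quenched with 100 mM Tris and 10 mM DTT. Intact peptide followed by C-18 RP-HPLC (5–45% acetonitrile/0.1% TFA over 10 min) at 214 and 280 nm.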

Chain of trypsin (P00761 9-231): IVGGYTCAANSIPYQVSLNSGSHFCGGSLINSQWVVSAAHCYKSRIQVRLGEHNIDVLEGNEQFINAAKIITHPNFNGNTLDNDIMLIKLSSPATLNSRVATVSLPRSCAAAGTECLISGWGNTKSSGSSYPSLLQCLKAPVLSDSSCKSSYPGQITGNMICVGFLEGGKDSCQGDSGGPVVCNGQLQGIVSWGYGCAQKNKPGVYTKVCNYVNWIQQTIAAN
Chain of pepsin (P00791 60-385): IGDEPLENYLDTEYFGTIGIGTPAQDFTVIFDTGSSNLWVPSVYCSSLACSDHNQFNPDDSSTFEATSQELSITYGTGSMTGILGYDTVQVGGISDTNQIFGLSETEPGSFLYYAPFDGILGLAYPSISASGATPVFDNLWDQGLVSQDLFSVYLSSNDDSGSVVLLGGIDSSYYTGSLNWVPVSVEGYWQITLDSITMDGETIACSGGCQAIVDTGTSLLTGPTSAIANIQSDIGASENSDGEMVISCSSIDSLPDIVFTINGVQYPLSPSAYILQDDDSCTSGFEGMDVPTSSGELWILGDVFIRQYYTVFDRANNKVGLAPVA

Row | Substance | Resistance to Trypsin (500 U/ml) [1] | Resistance to DTT Reduction (10 mM) [2] | Resistance to Temperature (75° C.) [3] | Resistance to Temperature (100° C.) [3] | Resistance to Pepsin (500 U/ml) [4]
1 | 11 (GSNCAGYMRECKEKLCCSGYVCSSRWKWCVLPAPWRR) [compound 11] | High (A peptide classified as high indicates that the majority (at least 75%) of the HPLC peak of the treated peptide is still present as compared to the HPLC peak of the untreated peptide) | Low (A peptide classified as low indicates that the majority (over 75%) of the HPLC peak of the treated peptide disappeared as compared to the HPLC peak of the untreated peptide) | High (A peptide classified as high indicates that the majority (at least 75%) of the HPLC peak of the treated peptide is still present as compared to the HPLC peak of the untreated peptide) | Low (A peptide classified as low indicates that the majority (over 75%) of the HPLC peak of the treated peptide disappeared as compared to the HPLC peak of the untreated peptide) | High (A peptide classified as high indicates that the majority (at least 75%) of the HPLC peak of the treated peptide is still present as compared to the HPLC peak of the untreated peptide)
2 | 13 (GSAEIIRCSGTRECYAPCQKLTGCLNAKCMNKACKCYGCV) [compound 13] | Low (A peptide classified as low indicates that the majority (over 75%) of the HPLC peak of the treated peptide disappeared as compared to the HPLC peak of the untreated peptide) | Low (A peptide classified as low indicates that the majority (over 75%) of the HPLC peak of the treated peptide disappeared as compared to the HPLC peak of the untreated peptide) | High (A peptide classified as high indicates that the majority (at least 75%) of the HPLC peak of the treated peptide is still present as compared to the HPLC peak of the untreated peptide) | High (A peptide classified as high indicates that the majority (at least 75%) of the HPLC peak of the treated peptide is still present as compared to the HPLC peak of the untreated peptide) | High (A peptide classified as high indicates that the majority (at least 75%) of the HPLC peak of the treated peptide is still present as compared to the HPLC peak of the untreated peptide)
3 | 14 (GSSDYCSNDFCFFSCRRDRCARGDCENGKCVCKNCHLN) [compound 14] | Low (A peptide classified as low indicates that the majority (over 75%) of the HPLC peak of the treated peptide disappeared as compared to the HPLC peak of the untreated peptide) | Low (A peptide classified as low indicates that the majority (over 75%) of the HPLC peak of the treated peptide disappeared as compared to the HPLC peak of the untreated peptide) | High (A peptide classified as high indicates that the majority (at least 75%) of the HPLC peak of the treated peptide is still present as compared to the HPLC peak of the untreated peptide) | High (A peptide classified as high indicates that the majority (at least 75%) of the HPLC peak of the treated peptide is still present as compared to the HPLC peak of the untreated peptide) | Moderate (A peptide classified as medium indicates that about half (between 25% and 75%) of the HPLC peak of the treated peptide disappeared as compared to the HPLC peak of the untreated peptide)
4 | 15 (GSCIGEGVPCDENDPRCCFGLVCLKPTLHGIWYKSYYCYKK) [compound 15] | Low (A peptide classified as low indicates that the majority (over 75%) of the HPLC peak of the treated peptide disappeared as compared to the HPLC peak of the untreated peptide) | Low (A peptide classified as low indicates that the majority (over 75%) of the HPLC peak of the treated peptide disappeared as compared to the HPLC peak of the untreated peptide) | High (A peptide classified as high indicates that the majority (at least 75%) of the HPLC peak of the treated peptide is still present as compared to the HPLC peak of the untreated peptide) | Low (A peptide classified as low indicates that the majority (over 75%) of the HPLC peak of the treated peptide disappeared as compared to the HPLC peak of the untreated peptide) | High (A peptide classified as high indicates that the majority (at least 75%) of the HPLC peak of the treated peptide is still present as compared to the HPLC peak of the untreated peptide)
5 | 16 (GSSCAKPGEMCMRIKCCDGQCGCNRGTGRCFCK) [compound 16] | Low (A peptide classified as low indicates that the majority (over 75%) of the HPLC peak of the treated peptide disappeared as compared to the HPLC peak of the untreated peptide) | Low (A peptide classified as low indicates that the majority (over 75%) of the HPLC peak of the treated peptide disappeared as compared to the HPLC peak of the untreated peptide) | High (A peptide classified as high indicates that the majority (at least 75%) of the HPLC peak of the treated peptide is still present as compared to the HPLC peak of the untreated peptide) | Low (A peptide classified as low indicates that the majority (over 75%) of the HPLC peak of the treated peptide disappeared as compared to the HPLC peak of the untreated peptide) | High (A peptide classified as high indicates that the majority (at least 75%) of the HPLC peak of the treated peptide is still present as compared to the HPLC peak of the untreated peptide)
